Data reported in paper PMC9403361.

Molecular target: Rabenosyn-5 (as printed for the GST pull-down of Figure 7)
Assay: pull-down; GST-effector fusion protein on glutathione-Sepharose beads incubated with clarified lysate of transfected cells for 1 h at 4 °C; lysis buffer 20 mM Hepes pH 7.4, 100 mM NaCl, 5 mM MgCl2, 0.1% NP40, 10% glycerol, 1 mM DTT; washed 3 times with PBS-T (1% Triton X-100); immunoblot with anti-Myc or anti-Rab antibody, bands quantified with LI-COR Odyssey

## Rab22 (from UniProt Q9UL26 1-194) (natural protein)
  fold binding to Rabenosyn-5 relative to EEA1: 2 to 3 fold
